Reference: patent US20200223921A1 (TRUEBINDING, published 2020)
One block for each molecule: values may come before it.

B1: mouse Gal3 protein (BioLegend) (ligand)
chain: ADSFSLNDALAGSGNPNPQGYPGAWGNQPGAGGYPGAAYPGAYPGQAPPGAYPGQAPPGAYPGQAPPSAYPGPTAPGAYPGPTAPGAYPGSTAPGAFPGQPGAPGAYPSAPGGYPAAGPYGVPAGPLTVPYDLPLPGGVMPRMLITIMGTVKPNANRIVLDFRRGNDVAFHFNPRFNENNRRVIVCNTKQDNNWGKEERQSAFPFESGKPFKIQVLVEADHFKVAVNDAHLLQYNHRMKNLREISQLGISGDITLTSANHAMI
notes: Bought recombinant protein coated on ELISA plates; also called mGal3
B2: mouse TIM-3 Fc protein (R&D systems) (Fc fusion, UniProt Q8VIM0 20-191, looked up)
chain: RSLENAYVFEVGKNAYLPCSYTLSTPGALVPMCWGKGFCPWSQCTNELLRTDERNVTYQKSSRYQLKGDLNKGDVSLIIKNVTLDDHGTYCCRIQFPGLMNDKKLELKLDIKAAKVTPAQTAHGDSTTASPRTLTTERNGSETQTLVTLHNNNGTKISTWADEIKDSGETIR
notes: Bought; also called mTIM-3 Fc; mTIM-3-Fc; not shown: Fc

Experiments:
[1] = target: mouse Gal3 (endogenous, on B16F10 tumor cells and RAW264.7 macrophages) (mouse) (UniProt P16110); test: flow cytometry on B16F10 cells, rat anti mouse Gal3 PE against control rat IgG PE
[2] = target: B2; test: ELISA: plate coated with mGal3 at 10 ug/ml, mTIM-3 Fc (FIGS. 5A-5C)
Method: In FIG. 5A, different anti Gal3 antibodies, i.e. mGal3 polyclonal antibody (R&D sytems), mAb IMT001, mAb M3/38 (Thermofisher Scientific) (FIG. 5A), were added to well that has been coated with Gal3. The antibodies were incubated for 10 minutes and mouse TIM-3 Fc were then added to the plates and incubated for an additional one-hour incubation. Plates were then washed for three times and followed by incubation with anti human-IgG-HRP (Jackson ImmunoResearch) for 1 h at room temperature. The color was developed with TMB subtract (GeneTex, Irvine, Calif.) after three time washes with TBST and the reaction was terminated with 1N HCl. The optical density (OD) was read at 450 nm. The results were expressed as the average OD of duplicates±SD.
In FIG. 5B, mouse Gal3 protein (BioLegend) in PBS (groups 1 and 2) or PS (Sigma-Aldrich, St. Louis, Mo.) in ethanol (groups 3 and 4) were coated on the plates and incubated at 4° C. overnight. Anti mTIM-3 mouse antibodies, mAb RMT3-23 (Bio X cell), was added to the coated plates for groups 2 and 4 only. Secondary anti human-IgG-HRP antibody and substrates were added as described above to detect the binding of the mTIM-3 to mGal3 or PS. […]

[3] = target: T1, Flag-tagged human Gal3 protein stably expressed on A20 cells (A20 Gal3 cells) (human, UniProt P17931 2-250); test: flow cytometry: mTIM-3 Fc on live A20 Gal3 cells, anti-hFc APC detection (FIG. 4B, row 2)
T1 construct: Mouse B lymphoma A20 cells transfected with a construct encoding Flag-tagged human Gal3; also called A20 cells overexpressing human Gal3; hGal3; not shown: Flag tag
Method: Flow cytometry analysis was performed to evaluate the binding between TIM-3 and Gal3 using A20 cells. A20 Gal3 cells were incubated with 10% FBS HBSS solution that contains with or without mouse TIM-3 Fc on ice for 20 minutes. There are five experimental groups: in group 1, A20 Gal3 cells were incubated without mTIM-3 Fc protein as control; in group 2, A20 Gal3 cells were incubated with mTIM-3 Fc protein; in groups 3, 4, 5, in addition to mTIM-3 Fc protein, anti-mouse TIM-3 polyclonal antibody (R&D System, Minneapolis, Minn.) (group 3), monoclonal antibody RMT3-23 (Bio X cell, West Lebanon, N.H.) (group 4), monoclonal antibody 215015 (R&D Systems) (group 5), were also added to test if these antibodies could block Gal3 and Tim3 binding. For blocking, cells were incubated with 10% FBS HBSS containing mentioned antibodies, then were added with 10% FBS HBSS containing mTIM-3 Fc for 20 min. Samples were centrifuged and pellet were added 10% FBS HBSS containing APC conjugated anti-hFc antibodies (Jackson ImmunoResearch, West Grove, Pa.) for 20 min. After spinning, live/dead cells were stained with Violet dead cell stain kit (Life Technologies). Stained cells were subjected to flow analysis.

[4] = target: human Gal9 protein (R&D systems) (human) (UniProt O00182); test: ELISA: plate coated with hGal9, mTIM-3 Fc with or without 25 mM alpha-lactose
Chain of human Gal9 protein (R&D systems) (human) (O00182 other isoform, or with tags, fused parts or gaps limits assumed): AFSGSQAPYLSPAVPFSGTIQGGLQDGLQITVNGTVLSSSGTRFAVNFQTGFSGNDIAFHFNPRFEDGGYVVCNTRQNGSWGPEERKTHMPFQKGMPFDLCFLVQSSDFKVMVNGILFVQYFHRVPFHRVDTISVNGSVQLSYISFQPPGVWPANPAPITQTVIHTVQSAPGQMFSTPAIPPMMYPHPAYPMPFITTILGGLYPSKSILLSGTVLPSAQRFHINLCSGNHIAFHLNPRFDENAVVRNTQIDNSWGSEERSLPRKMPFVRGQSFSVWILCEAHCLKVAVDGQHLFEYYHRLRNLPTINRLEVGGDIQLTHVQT

T1 sequence (P17931 2-250): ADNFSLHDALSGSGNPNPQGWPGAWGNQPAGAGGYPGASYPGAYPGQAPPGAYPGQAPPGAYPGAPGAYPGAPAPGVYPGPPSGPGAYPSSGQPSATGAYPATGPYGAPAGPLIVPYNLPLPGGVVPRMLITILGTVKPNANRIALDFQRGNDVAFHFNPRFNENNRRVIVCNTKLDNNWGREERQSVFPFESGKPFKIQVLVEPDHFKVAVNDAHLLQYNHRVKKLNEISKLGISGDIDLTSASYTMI

fold of MFI over isotype control antibody [1]: 10 fold
Molecule: rat anti mouse Gal3 PE antibody (Thermo Fisher Scientific)

Molecule: B1
binding result [2]: binds

Molecule: B2
binding result [3]: binds
fold reduction in ELISA signal with 25 mM alpha-lactose against no lactose [4]: > 10 fold
